Source: the RNAGym collection of RNA variant scans (doi:10.7554/elife.80360)

B1: HDV Ribozyme (parent)
chain: GGCCGGCAUGGUCCCAGCCUCCUCGCUGGCGCCGGCUGGGCAACAUUCCGAGGGGACCGUCCCCUCGGUAAUGGCGAAUGGGACCCA

Variants of: B1
Test: self-cleavage, relative activity (ratio to wild type); higher = more cleavage; co-transcriptional

Row | Variant | self-cleavage
1 | GGCCGGCAUGGUCCCAGCCUCCUCGCUGGCGCCGGCUGGGAAACAUUCCGAGGGGUCCGUCCCCUCGGUAAUGGCGAAUGGGACCCA [C41A A56U] | 0.89
2 | GGCCGGCAUGGUCCCAGCCUCCUCGCUGGCGCCGGCUGGGAAAAAUUCCGAGGGGACCGUCCCCUCGGUAAUGGCGAAUGGGACCCA [C41A C44A] | 0.404
3 | GGCCGGCAUGGUCCCAGCCUCCUCGCUGGCGCCGGCUGGGAAAUAUUCCGAGGGGACCGUCCCCUCGGUAAUGGCGAAUGGGACCCA [C41A C44U] | 0.692
4 | GGCCGGCAUGGUCCCAGCCUCCUCGCUGGCGCCGGCUGGUCAACAUUCCGAGGGGACCGUCCCCUCGGUAAUGGCGAAUUGGACCCA [G40U G80U] | 0.171
5 | GGCCGGCAUGGUCCCAGCCUCCUCGCUGGCGCCGGCUGGGAAUCAUUCCGAGGGGACCGUCCCCUCGGUAAUGGCGAAUGGGACCCA [C41A A43U] | 0.57
6 | GGCCGGCAUGGUCCCAGCCUCCUCGCUGGCGCCGGCUGGGAACCAUUCCGAGGGGACCGUCCCCUCGGUAAUGGCGAAUGGGACCCA [C41A A43C] | 0.872
7 | GGCCGGCAUGGUCCCAGCCUCCUCGCUGGCGCCGGCUGGGAAACAUUCCGAGGGGACCGUCCCCUCGGUAGUGGCGAAUGGGACCCA [C41A A71G] | 0.91
8 | GGCCGGCAUGGUCCCAGCCUCCUCGCUGGCGCCGGCUGGGAAACAUUCCGAGGGGACCGUCCCCUCGGUAUUGGCGAAUGGGACCCA [C41A A71U] | 0.665
9 | GGCCGGCAUGGUCCCAGCCUCCUCGCUGGCGCCGGCUGGGAAACAUUCCGAGGGGACCGUCCCCUCGGUAAUGGCGAAUGGGACCCA [C41A] | 0.94
10 | GGCCGGCAUGGUCCCAGCCUCCUCGCUGGCGCCGGCUGGGAAACAUUCCGAGGGGACCGUCCCCUCGGUAAUGGCGAAUGGGACCCC [C41A A87C] | 1
11 | GGCCGGCAUGGUCCCAGCCUCCUCGCUGGCGCCGGCUGGGAAACAUUCCGAGGGGACCGUCCCCUCGGUAAUGGCGAAUGGGACCCG [C41A A87G] | 0.883
12 | GGCCGGCAUGGUCCCAGCCUCCUCGCUGGCGCCGGCUGGGAAACAUUCCGAGGGGACCGUCCCCUCGGUAAUGGCGAAUGGGACCCU [C41A A87U] | 0.866
13 | GGCCGGCAUGGUCCCAGCCUCCUCGCUGGCGCCGGCUGGUCAACAUUCCGAGGGGACCGUCCCCUCGGUAAUGGCGAAUGGCACCCA [G40U G82C] | 0.157
14 | GGCCGGCAUGGUCCCAGCCUCCUCGCUGGCGCCGGCUGGUCAACAUUCCGAGGGGACCGUCCCCUCGGUAAUGGCGAAUGGUACCCA [G40U G82U] | 0.171
15 | GGCCGGCAUGGUCCCAGCCUCCUCGCUGGCGCCGGCUGGUCAACAUUCCGAGGGGACCGUCCCCUCGGUAAUGGCGAAUGGAACCCA [G40U G82A] | 0.256
16 | GGCCGGCAUGGUCCCAGCCUCCUCGCUGGCGCCGGCUGGUCAACAUUCCGAGGGGACCGUCCCCGCGGUAAUGGCGAAUGGGACCCA [G40U U65G] | 0.546
17 | GGCCGGCAUGGUCCCAGCCUCCUCGCUGGCGCCGGCUGGUCAACAUUCCGAGGGGACCGUCCCCCCGGUAAUGGCGAAUGGGACCCA [G40U U65C] | 0.7
18 | GGCCGGCAUGGUCCCAGCCUCCUCGCUGGCGCCGGCUGGGAAACAUUUCGAGGGGACCGUCCCCUCGGUAAUGGCGAAUGGGACCCA [C41A C48U] | 1.02
19 | GGCCGGCAUGGUCCCAGCCUCCUCGCUGGCGCCGGCUGGGAAACAUUACGAGGGGACCGUCCCCUCGGUAAUGGCGAAUGGGACCCA [C41A C48A] | 0.982
20 | GGCCGGCAUGGUCCCAGCCUCCUCGCUGGCGCCGGCUGGUCAACAUUCCGAGUGGACCGUCCCCUCGGUAAUGGCGAAUGGGACCCA [G40U G53U] | 0.75
21 | GGCCGGCAUGGUCCCAGCCUCCUCGCUGGCGCCGGCUGGUCAACAUUCCGAGGCGACCGUCCCCUCGGUAAUGGCGAAUGGGACCCA [G40U G54C] | 0.513
22 | GGCCGGCAUGGUCCCAGCCUCCUCGCUGGCGCCGGCUGGUCAACAUUCCGAGGGGACCGUCCCCUCGGUAAUGGCGAAAGGGACCCA [G40U U79A] | 0.262

Row | Variant | self-cleavage
23 | GGCCGGCAUGGUCCCAGCCUCCUCGCUGGCGCCGGCUGGGAAACAUUCCGAGGGGACAGUCCCCUCGGUAAUGGCGAAUGGGACCCA [C41A C58A] | 0.831
24 | GGCCGGCAUGGUCCCAGCCUCCUCGCUGGCGCCGGCUGGGAAACAUUCCGAGGGGACUGUCCCCUCGGUAAUGGCGAAUGGGACCCA [C41A C58U] | 0.778
25 | GGCCGGCAUGGUCCCAGCCUCCUCGCUGGCGCCGGCUGGUCAACAUCCCGAGGGGACCGUCCCCUCGGUAAUGGCGAAUGGGACCCA [G40U U47C] | 0.475
26 | GGCCGGCAUGGUCCCAGCCUCCUCGCUGGCGCCGGCUGGUCAACAUUCCGAGGGGACCGUCCCCUCUGUAAUGGCGAAUGGGACCCA [G40U G67U] | 0.757
27 | GGCCGGCAUGGUCCCAGCCUCCUCGCUGGCGCCGGCUGGUCAACAUUCCGAGGGGACCGUCCCCUCCGUAAUGGCGAAUGGGACCCA [G40U G67C] | 0.639
28 | GGCCGGCAUGGUCCCAGCCUCCUCGCUGGCGCCGGCUGGUCAACAUUCCGAGGGGACCAUCCCCUCGGUAAUGGCGAAUGGGACCCA [G40U G59A] | 0.812
29 | GGCCGGCAUGGUCCCAGCCUCCUCGCUGGCGCCGGCUGGUCAACAUUCCGAGGGGACCCUCCCCUCGGUAAUGGCGAAUGGGACCCA [G40U G59C] | 0.76
30 | GGCCGGCAUGGUCCCAGCCUCCUCGCUGGCGCCGGCUGGGAAACAUUCAGAGGGGACCGUCCCCUCGGUAAUGGCGAAUGGGACCCA [C41A C49A] | 0.519
31 | GGCCGGCAUGGUCCCAGCCUCCUCGCUGGCGCCGGCUGGUCAACAUUCCGAGGGCACCGUCCCCUCGGUAAUGGCGAAUGGGACCCA [G40U G55C] | 0.937
32 | GGCCGGCAUGGUCCCAGCCUCCUCGCUGGCGCCGGCUGGUCAACAUUCCGAGGGAACCGUCCCCUCGGUAAUGGCGAAUGGGACCCA [G40U G55A] | 0.722
33 | GGCCGGCAUGGUCCCAGCCUCCUCGCUGGCGCCGGCUGGUCAACAUUCCGAGGGGACCGUCCCCUCGGAAAUGGCGAAUGGGACCCA [G40U U69A] | 0.623
34 | GGCCGGCAUGGUCCCAGCCUCCUCGCUGGCGCCGGCUGGUCAACAUUCCGAGGGGACCGUCCCCUCGGCAAUGGCGAAUGGGACCCA [G40U U69C] | 0.91
35 | GGCCGGCAUGGUCCCAGCCUCCUCGCUGGCGCCGGCUGGUCAACAUUCCGAGGGGACCGUCCCCUCGGUAAUCGCGAAUGGGACCCA [G40U G73C] | 0.166
36 | GGCCGGCAUGGUCCCAGCCUCCUCGCUGGCGCCGGCUGGUCAACAUUCCGAGGGGACCGUCCCCUCGGUAAUAGCGAAUGGGACCCA [G40U G73A] | 0.463
37 | GGCCGGCAUGGUCCCAGCCUCCUCGCUGGCGCCGGCUGGUCAACAUUCCGAGGGGACCGUCCCCUCGGUAAUGGCUAAUGGGACCCA [G40U G76U] | 0.795
38 | GGCCGGCAUGGUCCCAGCCUCCUCGCUGGCGCCGGCUGGUCAACAUUCCGAGGGGACCGUCCCCUCGGUAAUGGCAAAUGGGACCCA [G40U G76A] | 0.789
39 | GGCCGGCAUGGUCCCAGCCUCCUCGCUGGCGCCGGCUGGUCAACAUUCCGAGGGGACCGUCCCCUCGGUAAUGGCCAAUGGGACCCA [G40U G76C] | 0.492
40 | GGCCGGCAUGGUCCCAGCCUCCUCGCUGGCGCCGGCUGGUCAACAUUCCGAGGGGACCGUCCCCUCGAUAAUGGCGAAUGGGACCCA [G40U G68A] | 0.722
41 | GGCCGGCAUGGUCCCAGCCUCCUCGCUGGCGCCGGCUGGUCAACAUUCCGAGGGGACCGUCCCCUCGUUAAUGGCGAAUGGGACCCA [G40U G68U] | 0.858
42 | GGCCGGCAUGGUCCCAGCCUCCUCGCUGGCGCCGGCUGGUCAACAUUCCGAGGGGACCGUCCCCUCGCUAAUGGCGAAUGGGACCCA [G40U G68C] | 0.443
43 | GGCCGGCAUGGUCCCAGCCUCCUCGCUGGCGCCGGCUGGUCAACAUUCCGAGGGGACCGUCCCCUCGGUAAUGACGAAUGGGACCCA [G40U G74A] | 0.415
44 | GGCCGGCAUGGUCCCAGCCUCCUCGCUGGCGCCGGCUGGGAAACAUUCCGAGGGGACCGUCCCCUCGGUAAUGGCGAGUGGGACCCA [C41A A78G] | 0.534

Row | Variant | self-cleavage
45 | GGCCGGCAUGGUCCCAGCCUCCUCGCUGGCGCCGGCUGGGAAACAUUCCGAGGGGACCGUCCCCUCGGUAAUGGCGACUGGGACCCA [C41A A78C] | 0.185
46 | GGCCGGCAUGGUCCCAGCCUCCUCGCUGGCGCCGGCUGGGAAACAUUCCGGGGGGACCGUCCCCUCGGUAAUGGCGAAUGGGACCCA [C41A A51G] | 0.705
47 | GGCCGGCAUGGUCCCAGCCUCCUCGCUGGCGCCGGCUGGGAAACAUUCCGCGGGGACCGUCCCCUCGGUAAUGGCGAAUGGGACCCA [C41A A51C] | 0.875
48 | GGCCGGCAUGGUCCCAGCCUCCUCGCUGGCGCCGGCUGGGAAACUUUCCGAGGGGACCGUCCCCUCGGUAAUGGCGAAUGGGACCCA [C41A A45U] | 0.872
49 | GGCCGGCAUGGUCCCAGCCUCCUCGCUGGCGCCGGCUGGGAAACGUUCCGAGGGGACCGUCCCCUCGGUAAUGGCGAAUGGGACCCA [C41A A45G] | 0.942
50 | GGCCGGCAUGGUCCCAGCCUCCUCGCUGGCGCCGGCUGGGAAACCUUCCGAGGGGACCGUCCCCUCGGUAAUGGCGAAUGGGACCCA [C41A A45C] | 0.504
51 | GGCCGGCAUGGUCCCAGCCUCCUCGCUGGCGCCGGCUGGGAAACAUUCCGAGGGGACCGUCCCCUCGGUAAUGGCGAAUGGGUCCCA [C41A A83U] | 0.35
52 | GGCCGGCAUGGUCCCAGCCUCCUCGCUGGCGCCGGCUGGGAGACAUUCCGAGGGGACCGUCCCCUCGGUAAUGGCGAAUGGGACCCA [C41A A42G] | 0.269
53 | GGCCGGCAUGGUCCCAGCCUCCUCGCUGGCGCCGGCUGGGAAACAUUCCGAGGGGACCGUACCCUCGGUAAUGGCGAAUGGGACCCA [C41A C61A] | 1.07
54 | GGCCGGCAUGGUCCCAGCCUCCUCGCUGGCGCCGGCUGGUCAACAUUCCGAGGGGACCGUCCCCUCGGUAAAGGCGAAUGGGACCCA [G40U U72A] | 0.181
55 | GGCCGGCAUGGUCCCAGCCUCCUCGCUGGCGCCGGCUGGUCAACAUUCCGAGGGGACCGUCCCCUCGGUAACGGCGAAUGGGACCCA [G40U U72C] | 0.176
56 | GGCCGGCAUGGUCCCAGCCUCCUCGCUGGCGCCGGCUGGGAAACAUUCCGAGGGGAGCGUCCCCUCGGUAAUGGCGAAUGGGACCCA [C41A C57G] | 1.04
57 | GGCCGGCAUGGUCCCAGCCUCCUCGCUGGCGCCGGCUGGGAAACAUUCCGAGGGGAACGUCCCCUCGGUAAUGGCGAAUGGGACCCA [C41A C57A] | 1.02
58 | GGCCGGCAUGGUCCCAGCCUCCUCGCUGGCGCCGGCUGGUCAACAUUCCGAUGGGACCGUCCCCUCGGUAAUGGCGAAUGGGACCCA [G40U G52U] | 0.576
59 | GGCCGGCAUGGUCCCAGCCUCCUCGCUGGCGCCGGCUGGUCAACAUUCCGAGGGGACCGUCCCCUCGGUAAUGGCGAAUGAGACCCA [G40U G81A] | 0.328
60 | GGCCGGCAUGGUCCCAGCCUCCUCGCUGGCGCCGGCUGGUCAACAAUCCGAGGGGACCGUCCCCUCGGUAAUGGCGAAUGGGACCCA [G40U U46A] | 0.364
61 | GGCCGGCAUGGUCCCAGCCUCCUCGCUGGCGCCGGCUGGUCAACAUUCCGAGGGGACCGCCCCCUCGGUAAUGGCGAAUGGGACCCA [G40U U60C] | 0.723
62 | GGCCGGCAUGGUCCCAGCCUCCUCGCUGGCGCCGGCUGGUCAACAUUCCGAGGGGACCGGCCCCUCGGUAAUGGCGAAUGGGACCCA [G40U U60G] | 0.796
63 | GGCCGGCAUGGUCCCAGCCUCCUCGCUGGCGCCGGCUGGUCAACAUUCCGAGGGGACCGACCCCUCGGUAAUGGCGAAUGGGACCCA [G40U U60A] | 0.795
64 | GGCCGGCAUGGUCCCAGCCUCCUCGCUGGCGCCGGCUGGGAAACAUUCCGAGGGGACCGUCCCCUCGGUUAUGGCGAAUGGGACCCA [C41A A70U] | 0.817
